Laboratory results published in FireProtDB (doi:10.1016/j.bpc.2006.10.013).

B1: Rubredoxin, P24297 (parent)
chain: MAKWVCKICGYIYDEDAGDPDNGISPGTKFEELPDDWVCPICGAPKSEFEKLED
B2: Rubredoxin, P00268 (parent)
chain: MKKYTCTVCGYIYNPEDGDPDNGVNPGTDFKDIPDDWVCPLCGVGKDQFEEVEE

How the values were obtained:
[1] = variants of: B1; conditions: Pyrococcus furiosus (strain ATCC 43587 / DSM 3638 / JCM 8422 / Vc1), pH 9.08, Thermal, NMR, Sodium borate 100 mM, reversible: Yes, structure 1BRF, whole UniProt chain shown
[2] = variants of: B2; conditions: Clostridium pasteurianum, pH 9.08, Thermal, NMR, Sodium borate 100 mM, reversible: Yes, structure 1IRO, whole UniProt chain shown

Variant | ddG of mutation (higher = less stable) ([1]; 133.6 °C) [kcal/mol] | heat capacity change of unfolding ([1]; 133.6 °C) [kcal/mol/K] | Tm [1] [°C] | heat capacity change of unfolding [1] [kcal/mol/K] | unfolding enthalpy (van 't Hoff) [1] [kcal/mol] | Tm [2] [°C] | ddG of mutation (higher = less stable) [2] [kcal/mol] | heat capacity change of unfolding [2] [kcal/mol/K] | unfolding enthalpy (van 't Hoff) [2] [kcal/mol] | ddG of mutation (higher = less stable) ([2]; 107 °C) [kcal/mol] | heat capacity change of unfolding ([2]; 107 °C) [kcal/mol/K]
MAKWVCKICGYIYDEDAGDPDNGISPGTKFEEIPDDWVCPICGAPKSEFEKLED [L33I] | 0.88 | 0.5 |  |  |  |  |  |  |  |  | 
MAKWVCKICGYIYDEDAGDPDNGVSPGTKFEEIPDDWVCPICGAPKSEFEKLED [I24V L33I] |  |  | 133 | 0.5 | 62 |  |  |  |  |  | 
MAKWVCKICGYIYDEDAGDPDNGVSPGTKFEELPDDWVCPICGAPKSEFEKLED [I24V] |  | 0.5 | 136 | 0.5 | 74 |  |  |  |  |  | 
MKKYTCTVCGYIYNPEDGDPDNGINPGTDFKDLPDDWVCPLCGVGKDQFEEVEE [V24I I33L] |  |  |  |  |  | 115 | -1.31 | 0.5 | 65 |  | 
MKKWTCTVCGYIYNPEDGDPDNGINPGTDFKDLPDDWVCPLCGVGKDQFEEVEE [Y4W V24I I33L] |  |  |  |  |  | 114 |  | 0.5 | 63 |  | 
MKKYTCTVCGYIYNPEDGDPDNGVNPGTDFKDLPDDWVCPLCGVGKDQFEEVEE [I33L] |  |  |  |  |  | 112 | -0.76 | 0.5 | 64 | -0.76 | 0.5
MKKYTCTVCGYIYNPEDGDPDNGINPGTDFKDIPDDWVCPLCGVGKDQFEEVEE [V24I] |  |  |  |  |  | 110 | -0.36 | 0.5 | 59 | -0.36 | 0.5
